Measurements reported in patent US20240043563A1.
Positions count from the first letter of the chain named.

B1: murine anti-human MASP-2 monoclonal antibody 124 (antibody, V domains shown)
VH: DVQLQESGPGLVKPSQSLSLTCTVTGYSITSDYAWNWIRQFPGNKLEWMGYISYSGRTSYNPSLKSRLSITRDTSKNQFFLQLTSVTTEDTATYYCARHYGDFWGQGTTLTVSS
VL: DIVMTQSQKFMSTSVGDRVSVTCKASQNVDTNVAWFQQKPGQSPKPLIYSASYRYSGVPDRFTGSGSGTDFTLTISNVQSEDLANYFCQQYNSYPSTFGSGTKLEIK
B2: murine anti-human MASP-2 monoclonal antibody 136 (antibody, V domains shown)
VH: QVQLQQSGAELAKPGASVKMSCKASGNTFTNYWMHWIKQRPGQGLEWVGYINPNTGYTDFNQKFKDKATLTADKSSTTAYMQLISLTSEDSTVYYCTLQLGRNFDYWGQGTTLTVSS
VL: DIVLTQSPASLGVSLGQRATISCRASQSVSSSRSTYIHWYQQKPGQPPKLLIKYSSNLESGVPARFSGGGSGTDFTLNIHPVEAEDTATYYCHQSWEIPYTFGGGTKLEIR
B3: murine anti-human MASP-2 monoclonal antibody 115 (antibody, V domains shown)
VH: DVQLVESGGGLVQPGGSRKLSCAASGFTFSSFGMHWVRQAPEKGLEWVAYISSGSSSFFYADTVKGRFTISRDNPKNTLFLQMTSLRSEDTAMYYCARGDRNFDVWGAGTTVTVSS
VL: DIVLTQSPASLAVSLGQRATISCRASQSVTSSRYSYMHWFQQKPGQPPNLLIKHASNLESGVPARFSGSGSGTDFTLNIHPVEEDDTATYYCQHSWEVPWTFGGGTKLEIK
B4: murine anti-human MASP-2 monoclonal antibody 126 (antibody, V domains shown)
VH: B3 VH with A23V, F58S, A61V, D104E
VL: B3 VL with T30S, D85E, H94Q
B5: murine anti-human MASP-2 monoclonal antibody 100 (antibody, V domains shown)
VH: DVQLVESGGGLVQPGGSRKLSCAASGFTFSNFGIHWVRQAPEKGLEWVAYISSGGSAVFYADTVKGRFTISRDNSKNTLFLQMTSLRSEDTAIYYCAKSDRYFDYWGQGTTLTVSS
VL: B3 VL with T30S, R33S, S35R, M37I, F40Y, N49R, H54Y, D85E, V98T
B6: murine anti-human MASP-2 monoclonal antibody 60 (antibody, V domains shown)
VH: QVQLQQSGAELMKPGASVKISCKATGYPFSTYWIEWVKQRPGHGLEWIGEILPGSDNTNYNEKFKGKATFTADTSSNTAYMQLSSLTSEDSAVYYCARRTTATRAWFVYWGQGTLVTVSA
VL: DIVMSQSPSSLAVSVGEKVTMSCKSSQSLLYSSNQKNYLAWYQQKPGQSPKLLIYWASTRESGVPDRFTGSGSGTDFTLTISSVRAEDLAVYYCQHYYTYPWTFGGGTNLEIK
B7: murine anti-human MASP-2 monoclonal antibody 120 (antibody, V domains shown)
VH: DVQLQESGPGLVKPSQSLSLTCTVTGYSITSDYAWSWIRQFLRNKLEWMGYISYSGRTSYNPSLKSRISITRDTSKNQFFLQLNSVTTEDTATYFCARLITGGDYWGQGTSVTVSS
VL: DIVMTQSQKFMSTSVGDRVSVTCKASQNVGINVVWYQQKPGQSPKALIYSASYRFSGVPDRFTGSGSGTDFTLTISNVQSEDLAEYLCLQYDINPLTFGAGTKLELK
B8: humanized anti-human MASP-2 monoclonal antibody 124-Hu (antibody, human IgG4 S228P, kappa, V domains shown)
VH: QVQLQESGPGLVKPSQTLSLTCTVSGYSITSDYAWNWIRQPPGKGLEWMGYISYSGRTSYNPSLKSRLTISRDTSKNQFSLKLSSVTAADTAVYYCARHYGDFWGQGTTVTVSS
VL: DIQMTQSPSSLSASVGDRVTITCKASQNVDTNVAWYQQKPGKAPKLLIYSASYRYSGVPSRFSGSGSGTDFTLTISSLQPEDFATYYCQQYNSYPSTFGQGTKLEIKR
B9: humanized anti-human MASP-2 monoclonal antibody 126-Hu (antibody, human IgG4 S228P, kappa, V domains shown)
VH: QVQLVESGGGVVQPGRSLRLSCAASGFTFSSFGMHWVRQAPGKGLEWVAYISSGSSSSFYVDTVKGRFTISRDNSKNTLYLQMNSLRAEDTAVYYCARGDRNFEVWGQGTTVTVSS
VL: DIQMTQSPSSLSASVGDRVTITCRASQSVSSSRYSYMHWFQQKPGKAPKLLIYHASNLESGVPSRFSGSGSGTDFTLTISSLQPEDFATYYCQQSWEVPWTFGQGTKLEIKR
B10: humanized anti-human MASP-2 monoclonal antibody 136-Hu (antibody, human IgG4 S228P, kappa, V domains shown)
VH: QVQLVQSGAEVKKPGASVKVSCKASGNTFTNYWMHWIRQAPGQGLEWMGYINPNTGYTDFNQKFKDRVTLTADKSTSTAYMELSSLRSEDTAVYYCTLQLGRNFDYWGQGTTVTVSS
VL: B9 VL with Y34S, S35T, M37I, F40Y, H54Y, A55S, Q93H, V98I, W100Y
B11: humanized anti-human MASP-2 monoclonal antibody 100-Hu (antibody, human IgG4 S228P, kappa, V domains shown)
VH: B5 VH with D1Q, L11V, R18L, K19R, E42G, F80Y, T84N, S88A, I93V, L112V
VL: EIVLTQSPATLSLSPGERATLSCRASQSVSSSSYRYIHWYQQKPGQAPRLLIYYASNLESGIPARFSGSGSGTDFTLTISSLEPEDFAVYYCQHSWETPWTFGQGTKLEIKR

Molecular target: Fc-hMASP-2A-CCS (human) [IgG part: P01857]
Sequence (P01857 other isoform, or with tags, fused parts or gaps limits assumed, form in doubt): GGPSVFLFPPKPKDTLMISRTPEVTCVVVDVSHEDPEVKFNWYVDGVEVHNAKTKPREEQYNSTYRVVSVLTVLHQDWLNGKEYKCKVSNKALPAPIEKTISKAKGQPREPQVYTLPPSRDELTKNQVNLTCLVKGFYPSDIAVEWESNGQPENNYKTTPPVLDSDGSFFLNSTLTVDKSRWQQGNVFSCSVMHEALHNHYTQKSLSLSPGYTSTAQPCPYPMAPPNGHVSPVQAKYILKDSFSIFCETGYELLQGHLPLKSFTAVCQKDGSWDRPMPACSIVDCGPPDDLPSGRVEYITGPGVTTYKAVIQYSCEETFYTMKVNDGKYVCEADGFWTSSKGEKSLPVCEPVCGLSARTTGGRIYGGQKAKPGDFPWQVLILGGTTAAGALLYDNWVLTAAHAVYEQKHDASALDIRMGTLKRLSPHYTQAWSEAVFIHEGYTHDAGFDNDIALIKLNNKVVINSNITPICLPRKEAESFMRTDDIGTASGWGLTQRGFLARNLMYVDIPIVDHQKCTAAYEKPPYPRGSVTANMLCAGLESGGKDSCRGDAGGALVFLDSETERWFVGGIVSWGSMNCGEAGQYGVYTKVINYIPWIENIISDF
Assay: ELISA, plate coated with 1 ug/mL Fc-hMASP-2A-CCS

| EC50 [nM] | Binder |
| --- | --- |
| 0.182 | B1 |
| 0.143 | B2 |
| 0.151 | B3 |
| 0.161 | B4 |
| 0.173 | B5 |
| 0.149 | B6 |
| 0.16 | B7 |

Molecular target: Fc-hMASP-2A-CCS (human) [IgG part: P01857]
Assay: ELISA according to Example 5, plate coated with Fc-hMASP-2A-CCS

| EC50 [nM] | Binder |
| --- | --- |
| 0.25 | B8 |
| 0.246 | B9 |
| 0.26 | B10 |
| 0.297 | B11 |

Molecular target: MASP-2-CCS-Flag (human) (UniProt O00187)
Sequence (O00187 other isoform, or with tags, fused parts or gaps limits assumed, form in doubt): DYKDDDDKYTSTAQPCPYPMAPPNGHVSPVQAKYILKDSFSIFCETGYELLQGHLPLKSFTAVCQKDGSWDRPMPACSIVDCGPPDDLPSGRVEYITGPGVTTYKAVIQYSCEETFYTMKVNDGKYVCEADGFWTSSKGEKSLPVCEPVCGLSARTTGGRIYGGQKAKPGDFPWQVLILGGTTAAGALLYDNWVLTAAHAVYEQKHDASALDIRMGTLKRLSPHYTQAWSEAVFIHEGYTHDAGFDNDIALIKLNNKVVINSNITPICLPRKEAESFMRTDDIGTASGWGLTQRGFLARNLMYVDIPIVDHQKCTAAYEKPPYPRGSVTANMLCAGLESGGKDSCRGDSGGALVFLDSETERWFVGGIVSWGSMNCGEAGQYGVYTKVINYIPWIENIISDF
Assay: SPR, Biacore T200, antibody captured on Protein A chip, MASP-2-CCS-Flag as analyte

| Kd [nM] | fold affinity against the reference antibody Narsoplimab [times] | koff [s⁻¹] | kon [M⁻¹ s⁻¹] | Binder |
| --- | --- | --- | --- | --- |
| 0.35 | 25 | 0.000582 | 1.66e+06 | B8 |
| 0.148 | 60 | 6.33e-05 | 428000 | B9 |
| 0.998 | – | 0.000589 | 590000 | B10 |
| 0.701 | – | 0.000298 | 428000 | B11 |
